Tested on: H3K9 on core histones or nucleosomes from HeLa cells
Assay: In vitro demethylation assay
Format: biochemical
Settings: 5 hours at 37° C., Western blot; for demethylation of trimethyl H3K9: core histones and nucleosomes from HeLa cells
Protocol: FIG. 2 JMJD2C interacts with chromatin and demethylates H3K9. LNCaP cells were incubated with or without the AR agonist R1881 (a, b), and transfected with stealth RNAi (b). ChIP or Re-ChIP was performed with the indicated antibodies. The precipitated chromatin was amplified by PCR using primers flanking the promoter region (ARE I+II) and the enhancer region (ARE III) of the PSA gene, the promoter region (ARE) of the KLK2 gene, or the promoters of the unrelated GAPDH and U6 genes. Western blot analysis (b, lower right panel) verified the specific siRNA-mediated knockdown of JMJD2C. c, Core histories or nucleosomes from HeLa cells were incubated with recombinant JMJD2C (aa 12-349) or mutant JMJD2C H190A (aa 12-349). Western blots were decorated with the indicated antibodies against α-mono-, α-di-, or α-trimethyl H3K9.
FIG. 6: The integrity of core histones and nucleosomes is maintained during the demethylation assay. Core histones or nucleosomes from HeLa cells were incubated with recombinant JMJD2C (aa 12-349) or mutant JMJD2C H190A (aa 12-349). Western blots were decorated with α-H3 antibody.
The demethylation assays were performed as described^4. His-tagged proteins were incubated for 5 hours at 37° C. in demethylation buffer containing 50 mM HEPES-KOH pH 8.0, 2 mM ascorbate, 100 μM Fe(NH4)2(SO4)2, 1 mM α-ketoglutarate with 1 μg of nucleosomes or core histones purified from HeLa cells^22. The reaction mixture was analysed by SDS-PAGE followed by Western blotting using antibodies as indicated.

B1: JMJD2C: Recombinantly expressed and purified His-tagged JMJD2C (aa 12-349), a JMJC domain-containing histone demethylase (protein, UniProt Q9H3R0 12-349, looked up, fragment)
chain: PSCKIMTFRPSMEEFREFNKYLAYMESKGAHRAGLAKVIPPKEWKPRQCYDDIDNLLIPAPIQQMVTGQSGLFTQYNIQKKAMTVKEFRQLANSGKYCTPRYLDYEDLERKYWKNLTFVAPIYGADINGSIYDEGVDEWNIARLNTVLDVVEEECGISIEGVNTPYLYFGMWKTTFAWHTEDMDLYSINYLHFGEPKSWYAIPPEHGKRLERLAQGFFPSSSQGCDAFLRHKMTLISPSVLKKYGIPFDKITQEAGEFMITFPYGYHAGFNHGFNCAESTNFATVRWIDYGKVAKLCTCRKDMVKISMDIFVRKFQPDRYQLWKQGKDIYTIDHTKPT
modifications: His-tag
notes: Recombinantly expressed and purified His-tagged JMJD2C (aa 12-349), a JMJC domain-containing histone demethylase
For B1, the “methylation status of mono- and dimethyl H3K9” value was “not altered” and the “demethylation of trimethyl H3K9” value was “very efficiently demethylates”.

B2: JMJD2C H190A: enzymatically impaired mutant JMJD2C H190A (aa 12-349) (protein)
chain: PSCKIMTFRPSMEEFREFNKYLAYMESKGAHRAGLAKVIPPKEWKPRQCYDDIDNLLIPAPIQQMVTGQSGLFTQYNIQKKAMTVKEFRQLANSGKYCTPRYLDYEDLERKYWKNLTFVAPIYGADINGSIYDEGVDEWNIARLNTVLDVVEEECGISIEGVNTPYLYFGMWKTTFAWATEDMDLYSINYLHFGEPKSWYAIPPEHGKRLERLAQGFFPSSSQGCDAFLRHKMTLISPSVLKKYGIPFDKITQEAGEFMITFPYGYHAGFNHGFNCAESTNFATVRWIDYGKVAKLCTCRKDMVKISMDIFVRKFQPDRYQLWKQGKDIYTIDHTKPT
modifications: left off: small tags and cut ends
For B2, the “demethylation of trimethyl H3K9” value was “fails to demethylate”.

Reference: patent US8293494B2, “Tri-demethylation-capable protein complex, method of its preparation and its use” (Universitatsklinikum Freiburg, priority 2007, dated 2012)
